The text below walks through data of PMC7566454, “Sorcin is an early marker of neurodegeneration, Ca^2+ dysregulation and endoplasmic reticulum stress associated to neurodegenerative diseases” (Cell Death & Disease, 2020).

Test [1] concerns the target T1, human Sorcin (human, UniProt P30626 1-198).
T1 construct: Sorcin, human
T1 sequence (looked up): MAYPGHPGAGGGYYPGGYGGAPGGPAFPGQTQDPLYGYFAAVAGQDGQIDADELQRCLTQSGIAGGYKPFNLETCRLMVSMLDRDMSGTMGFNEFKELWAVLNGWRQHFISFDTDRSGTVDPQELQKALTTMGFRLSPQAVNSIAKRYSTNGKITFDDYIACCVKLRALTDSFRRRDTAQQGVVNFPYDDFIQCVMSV
In words: SPR; FastStep (SensiQ Pioneer); human Sorcin amine-coupled to a COOH5 chip (2000 RU); peptides 1.56-100 μM; 20 mM Hepes pH 7.4, 150 mM NaCl, 0.005% P20, 100 μM CaCl2; best fits with 2 sites. For orientation: In SPR one partner is held on a chip, and binding of the other changes the refractive index at the surface.

The target of test [2] is T1, human Sorcin. The test can be described thus: SPR; OneStep (SensiQ Pioneer); GST-Sigma-1 receptor (1-138) amine-coupled to a COOH5 chip (125 RU), signal on GST (80 RU) subtracted; Sorcin up to 5 μM; 20 mM Hepes pH 7.4, 150 mM NaCl, 0.005% P20 with CaCl2 (500 μM in the results, 100 μM in the methods); fit with 1 site. Conditions: both partners purified.
Test [3] concerns the target T1, human Sorcin. The test can be described thus: SPR; OneStep as a6 but in buffer with 1 mM EDTA (HBS-PE). Conditions: both partners purified.

Some results are limits rather than exact numbers.

As usually defined, the Kd is the equilibrium constant for the complex coming apart.

In the test with human Sorcin [1], “RyR2 peptide corresponding to calmodulin-binding site CaMBD2” had a Kd of 120 nM.

B1: GST-Sigma-1 receptor (cytosolic domain, residues 1-138) (domain or fragment, UniProt Q99720 1-138, looked up)
chain: MQWAVGRRWAWAALLLAVAAVLTQVVWLWLGTQSFVFQREEIAQLARQYAGLDHELAFSRLIVELRRLHPGHVLPDEELQWVFVNAGGWMGAMCLLHASLSEYVLLFGTALGSRGHSGRYWAEISDTIISGTFHQWRE
notes: Sigma-1 receptor, 'cytosolic domain' residues 1-138, cloned in frame with GST in pGEX4T1; pGEX4T1 puts GST at the N-terminus (surmised); also called Sigma-1 receptor (1–138); source: E. coli BL21(DE3), purified (GSTrap HP)
As for B1, the Kd with human Sorcin [2] amounted to 720 nM; with human Sorcin [3], 12000 nM.

B2: RyR2 peptide corresponding to calmodulin-binding site CaMBD1 (peptide)
peptide: FRYNEVMQALNMSAALTARKTREFR
notes: source: synthetic peptide (Biomatik, purity > 90%)
B2 returned a Kd in the test with human Sorcin [1] (both partners purified) above 10000 nM.

B3: RyR2 peptide corresponding to calmodulin-binding site CaMBD3 (peptide)
peptide: ALRYNVLTLVRMLSLKSLKKQMKRMKKMTVK
notes: as for B2
Consider B3, for which the Kd with human Sorcin [1] (both partners purified) turned out to be 480 nM.
